In patent US20030166623A1 (BETH ISRAEL DEACONESS MEDICAL CENTER, published 2003):
Blank lines part the entries; values can stand above or below the binder they belong to.

What was measured:
Experiment in all cases: cell-based or functional assay
[1] = biological target: T1, AR-AT (yeast 2-hybrid bait) (UniProt P10275 1-505)
T1 sequence (looked up): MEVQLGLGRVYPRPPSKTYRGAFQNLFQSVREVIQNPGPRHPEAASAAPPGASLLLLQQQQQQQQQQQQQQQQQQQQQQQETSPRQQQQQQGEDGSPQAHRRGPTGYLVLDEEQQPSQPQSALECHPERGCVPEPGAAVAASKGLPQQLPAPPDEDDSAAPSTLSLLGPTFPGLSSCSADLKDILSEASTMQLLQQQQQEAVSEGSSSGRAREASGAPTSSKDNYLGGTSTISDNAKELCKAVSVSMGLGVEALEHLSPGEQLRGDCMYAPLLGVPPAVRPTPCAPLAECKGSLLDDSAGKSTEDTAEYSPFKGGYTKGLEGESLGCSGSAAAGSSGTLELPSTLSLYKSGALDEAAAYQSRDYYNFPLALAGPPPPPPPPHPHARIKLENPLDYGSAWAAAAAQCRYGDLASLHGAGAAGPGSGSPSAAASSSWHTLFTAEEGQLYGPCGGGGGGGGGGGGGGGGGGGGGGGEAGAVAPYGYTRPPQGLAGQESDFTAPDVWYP

[2] = biological target: cortactin (yeast 2-hybrid bait)
[3] = biological target: T2, AR-DBD + LBD (yeast 2-hybrid bait) (UniProt P10275 506-920)
T2 sequence (looked up): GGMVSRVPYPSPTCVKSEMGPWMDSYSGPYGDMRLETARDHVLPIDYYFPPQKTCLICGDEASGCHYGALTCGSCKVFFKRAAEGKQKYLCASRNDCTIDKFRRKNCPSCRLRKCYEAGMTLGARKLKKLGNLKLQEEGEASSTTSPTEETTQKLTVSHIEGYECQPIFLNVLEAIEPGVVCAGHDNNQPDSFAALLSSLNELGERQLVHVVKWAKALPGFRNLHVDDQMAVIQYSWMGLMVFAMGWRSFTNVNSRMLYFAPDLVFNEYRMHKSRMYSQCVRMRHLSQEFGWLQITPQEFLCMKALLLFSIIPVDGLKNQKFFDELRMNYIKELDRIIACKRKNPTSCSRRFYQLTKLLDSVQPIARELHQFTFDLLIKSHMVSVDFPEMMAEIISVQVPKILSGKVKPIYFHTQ

[4] = biological target: pAS2 vector (empty bait control)
[5] = biological target: T3, AR-DBD (yeast 2-hybrid bait) (UniProt P10275 506-636)
T3 sequence (looked up): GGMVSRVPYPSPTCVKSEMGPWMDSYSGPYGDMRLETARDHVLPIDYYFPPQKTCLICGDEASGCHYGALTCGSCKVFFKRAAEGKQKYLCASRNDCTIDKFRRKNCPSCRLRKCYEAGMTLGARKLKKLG

Fold induction of β-galactosidase by DHT (yeast 2-hybrid) [1]: 1.1 fold
Fold induction of β-galactosidase by DHT (yeast 2-hybrid) [2]: 1 fold
Fold induction of β-galactosidase by DHT (yeast 2-hybrid) [3]: 27 fold
Fold induction of β-galactosidase by DHT (yeast 2-hybrid) [4]: 1.2 fold
Fold induction of β-galactosidase by DHT (yeast 2-hybrid) [5]: 0.9 fold
B1: pACT2-PAK (yeast 2-hybrid prey) (other, not shown: large carriers)
chain: LKRRLFRSMFLSTAATAPPSSSKPGPPPQSKPNSSFRPPQKDNPPSLVAKAQSLPSDQPVGTFSPLTTSDTSSPQKSLRTAPATGQLPGRSSPAGSPRTWHAQISTSNLYLPQDPTVAKGALAGEDTGVVTHEQFKAALRMVVDQGDPRLLLDSYVKIGEGSTGIVCLAREKHSGRQVAVKMMDLRKQQRRELLFNEVVIMRDYQHFNVVEMYKNYLVGEELWVLMEFLQGGALTDIVSQVRLNEEQIATVCEAVLQALAYLHAQGVIHRDIKSDSILLTLDGRVKLSDFGFCAQISKDVPKRKSLVGTPYWMAPEVISRSLYATEVDIWSLGIMVIEMVDGEPPYFSDSPVQAMKRLRDSPPPKLKNSHKVSPVLRDFLERMLVRDPQERATAQELLDHPFLLQTGLPECLVPLIQLYRKQTSTC

Fold induction of β-galactosidase by DHT (yeast 2-hybrid) [3]: 5.7 fold
B2: pGAD424-GRIP1 (yeast 2-hybrid prey, GRIP1 amino acids 730-1121) (other, UniProt Q61026 730-1121, looked up, not shown: large carriers)
chain: VKQEPASPKKKENALLRYLLDKDDTKDIGLPEITPKLERLDSKTDPASNTKLIAMKTVKEEVSFEPSDQPGSELDNLEEILDDLQNSQLPQLFPDTRPGAPTGSVDKQAIINDLMQLTADSSPVPPAGAQKAALRMSQSTFNNPRPGQLGRLLPNQNLPLDITLQSPTGAGPFPPIRNSSPYSVIPQPGMMGNQGMLGSQGNLGNNSTGMIGSSTSRPSMPSGEWAPQSPAVRVTCAATTGAMNRPVQGGMIRNPTASIPMRANSQPGQRQMLQSQVMNIGPSELEMNMGGPQYNQQQAPPNQTAPWPESILPIDQASFASQNRQPFGSSPDDLLCPHPAAESPSDEGALLDQLYLALRNFDGLEEIDRALGIPELVSQSQAVDAEQFSSQE
